B1: library; numbered along this chain (parent)
chain: MAAAGGARLLRAASAVLGGPAGRWLHHAGSRAGSSGLLRNRGPGGSAEASRSLSVSARARSSSEDKITVHFINRDGETLTTKGKVGDSLLDVVVENNLDIDGFGACEGTLACSTCHLIFEDHIYEKLDAITDEENDMLDLAYGLTDRSRLGCQICLTKSMDNMTVRVPETVADARQSIDVGKTS

Variants of: B1
Assay: scaled log2 fold change in cell abundance, elesclomol vs control (0 = silent mean, 1 = nonsense mean) (scaled log2 ratio); higher = higher viability under elesclomol (loss of FDX1 cuproptosis function)
Details: glucose 10 mM
[1] = with ABC1 FDX1 KO, elesclomol 5 nM, 14 days
[2] = with HEK293T FDX1 KO, elesclomol 40 nM, 11 days
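Note: variant abundance is its share of total variant reads in each endpoint sample, from next-generation sequencing of the integrated ORF PCR-amplified out of genomic DNA.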

| Variant | scaled log2 fold change [1] | scaled log2 fold change [2] |
| --- | --- | --- |
| E133I | 0.458 | -0.339 |
| E133Q | -0.239 | -0.406 |
| E133H | -0.148 | -0.764 |
| E133S | -1.5 | – |
| E133N | -0.113 | -0.0813 |
| E133M | -0.152 | -0.547 |
| E133C | 0.215 | -0.346 |
| E133L | -0.204 | 0.0198 |
| E133G | -0.151 | -0.168 |
| E133F | -0.18 | -0.56 |
| E133T | 0.0196 | 0.842 |
| E133W | -1.03 | 0.0959 |
| E133R | 0.274 | 0.00388 |
| E133Y | -0.281 | 0.898 |
| E133P | -0.087 | 0.243 |
| E133K | 0.105 | 0.342 |
| E133V | 0.153 | -0.0517 |
| E133D | 0.319 | 0.453 |
| E133A | -0.216 | 1.27 |
| E134G | 1.21 | 0.684 |
| E134N | 1.16 | 0.994 |
| E134W | 1.07 | 1.32 |
| E134P | 1.22 | 1.01 |
| E134D | 0.911 | 1.21 |

| Variant | scaled log2 fold change [1] | scaled log2 fold change [2] |
| --- | --- | --- |
| E134Y | 0.977 | 2.18 |
| E134F | 1.23 | 1.01 |
| E134C | 0.676 | 1.13 |
| E134Q | 0.525 | -0.44 |
| E134V | 0.638 | 0.419 |
| E134S | 0.926 | 0.571 |
| E134T | 1.02 | 0.834 |
| E134K | 1.1 | 1.28 |
| E134H | 0.345 | 0.225 |
| E134R | 1.23 | 1.26 |
| E134A | 0.628 | 0.137 |
| E134I | 1.03 | 0.865 |
| E134M | 0.946 | 0.587 |
| E134L | 1.1 | 1.21 |
| L127Y | 0.24 | -0.426 |
| L127I | 0.0723 | 0.119 |
| L127D | 0.521 | -0.11 |
| L127E | 0.573 | 0.536 |
| L127K | 0.682 | 0.253 |
| L127T | 0.249 | -0.0113 |
| L127V | 0.0908 | 0.603 |
| L127H | 0.038 | 0.312 |
| L127P | 0.814 | 1.12 |
| L127M | 0.152 | 0.302 |

| Variant | scaled log2 fold change [1] | scaled log2 fold change [2] |
| --- | --- | --- |
| L127W | 0.322 | 0.0443 |
| L127Q | 0.446 | 0.00947 |
| L127A | 0.297 | 1.31 |
| L127F | -0.388 | -0.405 |
| L127R | 0.785 | 0.151 |
| L127N | 0.0507 | 1.27 |
| L127G | 0.701 | -0.0303 |
| L127S | 0.442 | 0.345 |
| A129E | -0.447 | -0.333 |
| A129C | -0.31 | 0.555 |
| A129G | 0.16 | – |
| A129V | 0.217 | 0.196 |
| A129Y | -0.538 | – |
| A129R | 0.464 | -0.0758 |
| A129P | 0.272 | 0.0261 |
| A129W | -0.08 | 1.07 |
| A129H | -0.541 | – |
| A129F | 0.044 | -0.227 |
| A129K | -0.557 | -0.17 |
| A129D | -0.23 | 0.439 |
| A129S | 0.0531 | -0.075 |
| A129L | 0.598 | 1.27 |
| A129I | 0.162 | -0.508 |
| A129M | -0.0116 | – |

| Variant | scaled log2 fold change [1] | scaled log2 fold change [2] |
| --- | --- | --- |
| M137W | -0.244 | 1.1 |
| M137C | -0.596 | -0.635 |
| M137Q | 0.0471 | -0.244 |
| M137R | -0.477 | -0.0264 |
| M137I | 0.0941 | 0.499 |
| M137A | -0.189 | 0.285 |
| M137E | -0.366 | 0.879 |
| M137S | -0.337 | -0.153 |
| M137K | -0.121 | 1.33 |
| M137H | 0.073 | -0.384 |
| M137D | 0.813 | 0.152 |
| M137F | -0.075 | -0.7 |
| M137T | 0.14 | -0.403 |
| M137P | -0.0177 | -0.842 |
| M137L | 0.182 | 1.39 |
| M137Y | -0.108 | 1.02 |
| M137N | 0.119 | – |
| M137V | -0.0968 | -0.154 |
| M137G | -0.0982 | -0.171 |
| L138Y | 0.578 | -0.246 |
| L138T | -0.0362 | 0.287 |
| L138Q | -0.00504 | 0.34 |
| L138P | 1.15 | 0.887 |
| L138I | 0.0896 | 0.0458 |

| Variant | scaled log2 fold change [1] | scaled log2 fold change [2] |
| --- | --- | --- |
| L138R | -0.0868 | -0.131 |
| L138K | 0.41 | -0.306 |
| L138V | -0.213 | -0.414 |
| L138N | 0.767 | 0.557 |
| L138H | 0.199 | 0.223 |
| L138G | 0.706 | 0.389 |
| L138F | 0.0535 | -0.0648 |
| L138W | 0.885 | 0.749 |
| L138A | 0.519 | -0.22 |
| L138S | 0.467 | 0.0871 |
| L138E | 0.986 | 0.639 |
| L138C | -0.108 | 0.251 |
| L138D | 1.11 | 1.04 |
| L138M | 0.188 | 0.00846 |
| I130K | -0.203 | 0.0187 |
| I130N | -0.0924 | 0.234 |
| I130Q | 0.0588 | -0.458 |
| I130V | 0.000565 | -0.448 |
| I130P | -0.462 | -0.467 |
| I130Y | 0.33 | 0.102 |
| I130H | 0.0428 | 0.239 |

— the supplement of paper PMC12855868
